# Experimental data reported in PMC8191314 (The Journal of Biological Chemistry, 2021).
# B1: MRCKβ in extracts from HeLa cells (enzyme, UniProt Q9Y5S2 1-1711, looked up)
# chain: MSAKVRLKKLEQLLLDGPWRNESALSVETLLDVLVCLYTECSHSALRRDKYVAEFLEWAKPFTQLVKEMQLHREDFEIIKVIGRGAFGEVAVVKMKNTERIYAMKILNKWEMLKRAETACFREERDVLVNGDCQWITALHYAFQDENHLYLVMDYYVGGDLLTLLSKFEDKLPEDMARFYIGEMVLAIDSIHQLHYVHRDIKPDNVLLDVNGHIRLADFGSCLKMNDDGTVQSSVAVGTPDYISPEILQAMEDGMGKYGPECDWWSLGVCMYEMLYGETPFYAESLVETYGKIMNHEERFQFPSHVTDVSEEAKDLIQRLICSRERRLGQNGIEDFKKHAFFEGLNWENIRNLEAPYIPDVSSPSDTSNFDVDDDVLRNTEILPPGSHTGFSGLHLPFIGFTFTTESCFSDRGSLKSIMQSNTLTKDEDVQRDLEHSLQMEAYERRIRRLEQEKLELSRKLQESTQTVQSLHGSSRALSNSNRDKEIKKLNEEIERLKNKIADSNRLERQLEDTVALRQEREDSTQRLRGLEKQHRVVRQEKEELHKQLVEASERLKSQAKELKDAHQQRKLALQEFSELNERMAELRAQKQKVSRQLRDKEEEMEVATQKVDAMRQEMRRAEKLRKELEAQLDDAVAEASKERKLREHSENFCKQMESELEALKVKQGGRGAGATLEHQQEISKIKSELEKKVLFYEEELVRREASHVLEVKNVKKEVHDSESHQLALQKEILMLKDKLEKSKRERHNEMEEAVGTIKDKYERERAMLFDENKKLTAENEKLCSFVDKLTAQNRQLEDELQDLAAKKESVAHWEAQIAEIIQWVSDEKDARGYLQALASKMTEELEALRSSSLGSRTLDPLWKVRRSQKLDMSARLELQSALEAEIRAKQLVQEELRKVKDANLTLESKLKDSEAKNRELLEEMEILKKKMEEKFRADTGLKLPDFQDSIFEYFNTAPLAHDLTFRTSSASEQETQAPKPEASPSMSVAASEQQEDMARPPQRPSAVPLPTTQALALAGPKPKAHQFSIKSFSSPTQCSHCTSLMVGLIRQGYACEVCSFACHVSCKDGAPQVCPIPPEQSKRPLGVDVQRGIGTAYKGHVKVPKPTGVKKGWQRAYAVVCDCKLFLYDLPEGKSTQPGVIASQVLDLRDDEFSVSSVLASDVIHATRRDIPCIFRVTASLLGAPSKTSSLLILTENENEKRKWVGILEGLQSILHKNRLRNQVVHVPLEAYDSSLPLIKAILTAAIVDADRIAVGLEEGLYVIEVTRDVIVRAADCKKVHQIELAPREKIVILLCGRNHHVHLYPWSSLDGAEGSFDIKLPETKGCQLMATATLKRNSGTCLFVAVKRLILCYEIQRTKPFHRKFNEIVAPGSVQCLAVLRDRLCVGYPSGFCLLSIQGDGQPLNLVNPNDPSLAFLSQQSFDALCAVELESEEYLLCFSHMGLYVDPQGRRARAQELMWPAAPVACSCSPTHVTVYSEYGVDVFDVRTMEWVQTIGLRRIRPLNSEGTLNLLNCEPPRLIYFKSKFSGAVLNVPDTSDNSKKQMLRTRSKRRFVFKVPEEERLQQRREMLRDPELRSKMISNPTNFNHVAHMGPGDGMQVLMDLPLSAVPPSQEERPGPAPTNLARQPPSRNKPYISWPSSGGSEPSVTVPLRSMSDPDQDFDKEPDSDSTKHSTPSNSSNPSGPPSPNSPHRSQLPLEGLEQPACDT
# Target: the molecule itself
# Assay: cross-linking
protein,measurement,value
B1,stoichiometry N,2
